Paper PMC5798299

Key:
[1] = target: BG505 SOSIP.664-D7324 A316W trimer (unpurified, 293T) (HIV-1 (clade A, BG505)); assay: native gel or EMSA; BN-PAGE of unpurified Env proteins in 293T culture supernatants, Western blot with bNAb 2G12
[2] = target: BG505 SOSIP.664-D7324 R308L trimer (unpurified, 293T) (HIV-1 (clade A, BG505)); assay: as above
[3] = target: BG505 SOSIP.664-D7324 S306L trimer (unpurified, 293T) (HIV-1 (clade A, BG505)); assay: as above
[4] = target: BG505 SOSIP.664-D7324 trimer (PGT145-purified, 293F) (HIV-1 (clade A, BG505)); assay: native gel or EMSA; BN-PAGE of PGT145-purified trimers, Coomassie Blue stain
[5] = target: BG505 SOSIP.664-D7324 trimer (unpurified, 293T) (HIV-1 (clade A, BG505)); assay: native gel or EMSA; BN-PAGE of unpurified Env proteins in 293T culture supernatants, Western blot with bNAb 2G12
[6] = target: BG505 SOSIP.v4.1 S306L/R308L-D7324 trimer (HIV-1 (clade A, BG505)); assay: native gel or EMSA; BN-PAGE of PGT145-purified trimers, Coomassie Blue stain
[7] = target: BG505 SOSIP.v4.1-D7324 trimer (HIV-1 (clade A, BG505)); assay: as above
[8] = target: BG505 SOSIP.v5.2 S306L/R308L-D7324 trimer (HIV-1 (clade A, BG505)); assay: as above
[9] = target: BG505 SOSIP.v5.2-D7324 trimer (HIV-1 (clade A, BG505)); assay: as above

BG505 SOSIP.664-D7324 A316W trimer (unpurified, 293T) (complex)
stoichiometry N [1]: 3

BG505 SOSIP.664-D7324 R308L trimer (unpurified, 293T) (complex)
stoichiometry N [2]: 3

BG505 SOSIP.664-D7324 S306L trimer (unpurified, 293T) (complex)
stoichiometry N [3]: 3

BG505 SOSIP.664-D7324 trimer (PGT145-purified, 293F) (complex)
stoichiometry N [4]: 3

BG505 SOSIP.664-D7324 trimer (unpurified, 293T) (complex)
stoichiometry N [5]: 3

BG505 SOSIP.v4.1 S306L/R308L-D7324 trimer (complex)
stoichiometry N [6]: 3

BG505 SOSIP.v4.1-D7324 trimer (complex)
stoichiometry N [7]: 3

BG505 SOSIP.v5.2 S306L/R308L-D7324 trimer (complex)
stoichiometry N [8]: 3

BG505 SOSIP.v5.2-D7324 trimer (complex)
stoichiometry N [9]: 3
